Laboratory results reported in patent publication US20250051465A1 (published 2025).

T1: human LEPR extracellular domain expressed with a C-terminal mouse IgG2a Fc tag (hLEPR.mFc) (human)
T1 construct: also called dimeric human LEPR
T1 chain: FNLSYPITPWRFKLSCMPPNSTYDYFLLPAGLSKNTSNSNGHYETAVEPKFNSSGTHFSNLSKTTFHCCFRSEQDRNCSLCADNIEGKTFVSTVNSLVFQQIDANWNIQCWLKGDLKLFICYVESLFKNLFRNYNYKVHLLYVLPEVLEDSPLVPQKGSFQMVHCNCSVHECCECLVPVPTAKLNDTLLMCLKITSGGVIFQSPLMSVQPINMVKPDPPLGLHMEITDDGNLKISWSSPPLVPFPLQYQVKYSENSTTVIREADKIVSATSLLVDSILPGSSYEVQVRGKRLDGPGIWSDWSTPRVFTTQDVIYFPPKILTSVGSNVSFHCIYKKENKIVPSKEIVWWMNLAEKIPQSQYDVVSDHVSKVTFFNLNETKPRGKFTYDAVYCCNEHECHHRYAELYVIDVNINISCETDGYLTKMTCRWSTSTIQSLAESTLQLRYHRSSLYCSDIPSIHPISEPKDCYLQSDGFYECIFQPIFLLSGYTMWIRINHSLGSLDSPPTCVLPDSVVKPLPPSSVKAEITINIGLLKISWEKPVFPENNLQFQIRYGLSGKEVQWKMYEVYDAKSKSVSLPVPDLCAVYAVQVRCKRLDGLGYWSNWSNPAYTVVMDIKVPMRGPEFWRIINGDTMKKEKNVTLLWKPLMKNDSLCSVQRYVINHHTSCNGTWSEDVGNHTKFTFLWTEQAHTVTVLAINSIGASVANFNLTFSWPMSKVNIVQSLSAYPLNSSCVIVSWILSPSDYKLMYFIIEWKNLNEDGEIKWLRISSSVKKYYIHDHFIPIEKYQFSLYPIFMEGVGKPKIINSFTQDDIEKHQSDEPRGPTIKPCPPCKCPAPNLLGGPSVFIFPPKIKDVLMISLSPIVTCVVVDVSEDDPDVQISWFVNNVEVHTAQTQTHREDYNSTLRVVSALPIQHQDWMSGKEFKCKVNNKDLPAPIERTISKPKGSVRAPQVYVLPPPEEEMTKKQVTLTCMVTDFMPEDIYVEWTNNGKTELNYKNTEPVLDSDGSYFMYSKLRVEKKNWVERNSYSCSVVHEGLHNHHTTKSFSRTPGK


What was measured:
[1] = biological target: T2, Macaca fascicularis LEPR extracellular domain expressed with a C-terminal myc-myc-hexahistidine tag … (Macaca fascicularis, UniProt Q9MYL0 22-837 (rhesus entry)); assay: SPR, captured mAb, 37C
T2 construct: also called mfLEP.MMH
Procedure: (§1) Equilibrium dissociation constants (KD values) for LEPR binding to purified anti-LEPR monoclonal antibodies were determined using a real-time surface plasmon resonance biosensor using a Biacore 4000 instrument. All binding studies were performed in 10 mM HEPES, 150 mM NaCl, 3 mM EDTA, and 0.05% v/v Surfactant Tween-20, pH 7.4 (HBS-ET) running buffer at 25° C. and 37° C. The Biacore sensor surface was first derivatized by amine coupling with a monoclonal mouse anti-human Fc antibody (GE, #BR-1008-39) to capture anti-LEPR monoclonal antibodies. […] Kinetic association (kₐ) and dissociation (kd) rate constants were determined by fitting the real-time binding sensorgrams to a 1:1 binding model with mass transport limitation using Scrubber 2.0c curve-fitting software. Binding dissociation equilibrium constants (KD) and dissociative half-lives (t½) were calculated from the kinetic rate constants as: […]

[2] = biological target: T3, human LEPR extracellular domain expressed with a C-terminal myc-myc-hexahistidine tag (hLEPR.mmh) (human, UniProt P48357 22-839); assay: SPR, captured mAb, 37C
T3 construct: also called human LEPR-MMH; monomeric human LEPR
Procedure: as §1

[3] = biological target: T1, human LEPR extracellular domain …; assay: SPR, captured mAb, 37C
Procedure: as §1

[4] = biological target: T3, human LEPR extracellular domain …; assay: Luminex, myc-captured full length extracellular domain
Procedure: Aliquots of microspheres with immobilized anti-myc monoclonal antibodies, prepared as described above, were added individually to 1 mL of the each of these protein supernatants. The microspheres were gently mixed, incubated for two hours at 25° C., washed twice with 1 mL of DBPS, centrifuged to remove the supernatant and finally resuspended in 1 mL of DPBS buffer. Forty-eight μL of anti-myc IgG coupled microspheres from individual reactions with full length human LEPR and with each of the human LEPR domain proteins were withdrawn and mixed together in 3.6 mL of PBS+20 mg/mL BSA+0.05% sodium azide (blocking buffer).
From this mixed pool, 75 μL of microspheres were plated per well on a 96 well filter plate (Millipore, Cat. No: MSBVN1250) and mixed with 25 μL of individual anti-human LEPR monoclonal antibodies (0.5 or 5 µg/mL), incubated for two hours at 25° C. and then washed twice with 200 μL of DPBS with 0.05% Tween 20 (washing buffer). […] After 30 minutes, the samples were washed twice with 200 μL of washing buffer and resuspended in 150 μL of wash buffer. The Median Fluorescence intensity (MFI) of the microspheres was measured in a Luminex Analyzer.

[5] = biological target: T2, Macaca fascicularis LEPR extracellular …; assay: SPR, captured mAb, 25C
Procedure: as §1

[6] = biological target: T3, human LEPR extracellular domain …; assay: SPR, captured mAb, 25C
Procedure: as §1

[7] = biological target: T1, human LEPR extracellular domain …; assay: SPR, captured mAb, 25C
Procedure: as §1

Row | 100 nM mfLEPR.MMH Bound (RU) [1] [RU] | Kd [1] [nM] | koff [1] [s⁻¹] | kon [1] [M⁻¹ s⁻¹] | t½ [1] [min] | 100 nM hLEPR-MMH Bound (RU) [2] [RU] | Kd [2] [nM] | koff [2] [s⁻¹] | kon [2] [M⁻¹ s⁻¹] | t½ [2] [min] | 100 nM hLEPR-mFc Bound (RU) [3] [RU] | Kd [3] [nM] | koff [3] [s⁻¹] | kon [3] [M⁻¹ s⁻¹] | t½ [3] [min] | MFI [4] [MFI] | 100 nM mfLEP.MMH Bound (RU) [5] [RU] | Kd [5] [nM] | koff [5] [s⁻¹] | kon [5] [M⁻¹ s⁻¹] | Binder | other results
1 | 113 | 60.1 | 0.00324 | 53900 | 3.6 | 44 | 96.3 | 0.00341 | 35400 | 3.4 | 100 | 7.66 | 0.000652 | 85100 | 18 | 3300 | 83 | 11.6 | 0.000463 | 40000 | H4H17319P2 (antibody, human IgG4, V domains shown, Fully human antibody with human IgG4 Fc (H4H prefix)) VH: QVQLVESGGSVVQPGRSLRLSCAASGFTFSTYAMYWVRQTPGKGLEWVAVLYSDGSNKYYIDSVKGRFTISRDTSTNTLYLQMSSLRADDSALYYCARLNWDYWYFDLWGRGTLVTVSS VL: not shown | t½ [5]: 25 min; 100 nM hLEPR-MMH Bound (RU) [6]: 36 RU; Kd [6]: 20.3 nM; koff [6]: 0.000529 s⁻¹; kon [6]: 26100 M⁻¹ s⁻¹; t½ [6]: 22 min; 100 nM hLEPR-mFc Bound (RU) [7]: 69 RU; Kd [7]: 3.45 nM; koff [7]: 0.000164 s⁻¹; kon [7]: 47700 M⁻¹ s⁻¹; t½ [7]: 70 min
2 | 30 | 140 | 0.00354 | 25300 | 3.3 | 21 | 121 | 0.00256 | 21200 | 4.5 | 34 | 12.8 | 0.000548 | 42700 | 21 | 10500 | 23 | 58.3 | 0.00112 | 19300 | H4H18446P2 (antibody, human IgG4, V domains shown, Fully human antibody with human IgG4 Fc (H4H prefix)) VH: EVQLVESGGGLVQPGGSLRLSCAASGFTFSNYGMTWVRQAPGKGLEWVSAITGGGGSTYYSNSVKGRFTISRDNSKNTVYLRMNSVRAEDTAVYYCAKYKWNFVDDWGQGTTVTVSS VL: not shown | t½ [5]: 10 min; 100 nM hLEPR-MMH Bound (RU) [6]: 16 RU; Kd [6]: 52.5 nM; koff [6]: 0.000951 s⁻¹; kon [6]: 18100 M⁻¹ s⁻¹; t½ [6]: 12 min; 100 nM hLEPR-mFc Bound (RU) [7]: 20 RU; Kd [7]: 6.48 nM; koff [7]: 0.000208 s⁻¹; kon [7]: 32000 M⁻¹ s⁻¹; t½ [7]: 56 min
3 | 143 | 5.18 | 0.000257 | 49700 | 45 | 61 | 14.8 | 0.000438 | 29500 | 26 | 110 | 3.15 | 0.000174 | 55300 | 66 | 4700 | 75 | 4.07 | 0.000133 | 32600 | H4H17321P2 (antibody, human IgG4, V domains shown, Fully human antibody with human IgG4 Fc (H4H prefix)) VH: QVQLVESGGGVVQPGRSLRLSCEASGFSSSDNAMYWVRQAPGKGLEWVSVIYHDGSYKYYEDSVKGRFTIARDNSKNTLYLQMNSLRAEDTAVYYCARYNWNHWYFDVWGRGTLVTVSS VL: not shown | t½ [5]: 87 min; 100 nM hLEPR-MMH Bound (RU) [6]: 32 RU; Kd [6]: 8.31 nM; koff [6]: 0.000196 s⁻¹; kon [6]: 23600 M⁻¹ s⁻¹; t½ [6]: 59 min; 100 nM hLEPR-mFc Bound (RU) [7]: 65 RU; Kd [7]: 2.18 nM; koff [7]: 8.93e-05 s⁻¹; kon [7]: 41000 M⁻¹ s⁻¹; t½ [7]: 129 min
